From article PMC8634136 (The EMBO Journal, 2021)
Values belong to the binder of their own block, whether it stands above or below them.

B3: POLE2 (natural protein, human)
chain: MAPERLRSRALSAFKLRGLLLRGEAIKYLTEALQSISELELEDKLEKIINAVEKQPLSSNMIERSVVEAAVQECSQSVDETIEHVFNIIGAFDIPRFVYNSERKKFLPLLMTNHPAPNLFGTPRDKAEMFRERYTILHQRTHRHELFTPPVIGSHPDESGSKFQLKTIETLLGSTTKIGDAIVLGMITQLKEGKFFLEDPTGTVQLDLSKAQFHSGLYTEACFVLAEGWFEDQVFHVNAFGFPPTEPSSTTRAYYGNINFFGGPSNTSVKTSAKLKQLEEENKDAMFVFLSDVWLDQVEVLEKLRIMFAGYSPAPPTCFILCGNFSSAPYGKNQVQALKDSLKTLADIICEYPDIHQSSRFVFVPGPEDPGFGSILPRPPLAESITNEFRQRVPFSVFTTNPCRIQYCTQEITVFREDLVNKMCRNCVRFPSSNLAIPNHFVKTILSQGHLTPLPLYVCPVYWAYDYALRVYPVPDLLVIADKYDPFTTTNTECLCINPGSFPRSGFSFKVFYPSNKTVEDSKLQGF
notes: POLE2, human; Stood in the structure as a subunit of m2; residues 1-527 modelled; source: Hi5 insect cells, purified as a subunit of Pol ε

How the values were obtained:
Test in all cases: cryo-EM structure; replisome reconstituted on fork DNA with AMP-PNP, isolated on a glycerol gradient with glutaraldehyde and BS3; 3.2 Å overall; a sample without CLASPIN solved at 3.4 Å
Conditions in all cases: both partners purified
TIMELESS = target: T1, TIMELESS (human, UniProt Q9UNS1 1-1208)
T1 construct: Stood in the structure as a subunit of m3; residues 7-803 modelled (527-684 not visualised)
T1 sequence: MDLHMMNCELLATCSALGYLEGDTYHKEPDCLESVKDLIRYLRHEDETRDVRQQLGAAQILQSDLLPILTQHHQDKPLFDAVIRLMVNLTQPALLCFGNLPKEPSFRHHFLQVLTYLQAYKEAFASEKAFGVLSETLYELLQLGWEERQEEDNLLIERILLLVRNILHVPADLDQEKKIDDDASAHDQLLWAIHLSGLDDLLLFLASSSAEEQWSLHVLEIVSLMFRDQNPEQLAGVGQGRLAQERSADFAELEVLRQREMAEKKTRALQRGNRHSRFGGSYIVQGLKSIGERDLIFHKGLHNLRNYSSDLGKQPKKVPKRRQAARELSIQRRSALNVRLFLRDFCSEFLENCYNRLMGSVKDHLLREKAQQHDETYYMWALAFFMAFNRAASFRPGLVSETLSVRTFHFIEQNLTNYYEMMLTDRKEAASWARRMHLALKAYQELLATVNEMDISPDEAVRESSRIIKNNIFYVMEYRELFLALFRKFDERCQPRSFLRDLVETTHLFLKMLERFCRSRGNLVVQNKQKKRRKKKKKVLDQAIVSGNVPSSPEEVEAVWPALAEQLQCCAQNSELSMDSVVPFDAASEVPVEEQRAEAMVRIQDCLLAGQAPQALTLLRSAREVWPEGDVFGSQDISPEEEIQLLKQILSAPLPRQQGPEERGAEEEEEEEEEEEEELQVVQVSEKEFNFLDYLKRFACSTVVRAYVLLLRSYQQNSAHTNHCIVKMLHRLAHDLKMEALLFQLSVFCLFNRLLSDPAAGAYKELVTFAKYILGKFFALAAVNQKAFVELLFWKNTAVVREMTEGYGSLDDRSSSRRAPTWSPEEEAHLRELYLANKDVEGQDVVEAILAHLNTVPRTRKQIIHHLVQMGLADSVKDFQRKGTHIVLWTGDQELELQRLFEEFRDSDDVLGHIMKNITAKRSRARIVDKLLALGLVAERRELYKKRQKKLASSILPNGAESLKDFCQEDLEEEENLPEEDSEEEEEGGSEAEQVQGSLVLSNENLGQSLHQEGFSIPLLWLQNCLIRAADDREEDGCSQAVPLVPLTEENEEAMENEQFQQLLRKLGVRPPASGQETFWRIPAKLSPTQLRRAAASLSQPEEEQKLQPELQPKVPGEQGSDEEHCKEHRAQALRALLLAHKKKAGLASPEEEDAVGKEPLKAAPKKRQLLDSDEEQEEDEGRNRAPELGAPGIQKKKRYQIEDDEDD

MCM7 = target: T2, MCM7 (human, UniProt P33993 1-719)
T2 construct: MCM7, human; Stood in the structure as a subunit of m1; source: Hi5 insect cells, purified as a subunit of hsCMG

POLE2 = target: B3
MCM5 = target: T3, MCM5 (human, UniProt P33992 1-734)
T3 construct: MCM5, human; Stood in the structure as a subunit of m1; source: Hi5 insect cells, purified as a subunit of hsCMG
T3 sequence: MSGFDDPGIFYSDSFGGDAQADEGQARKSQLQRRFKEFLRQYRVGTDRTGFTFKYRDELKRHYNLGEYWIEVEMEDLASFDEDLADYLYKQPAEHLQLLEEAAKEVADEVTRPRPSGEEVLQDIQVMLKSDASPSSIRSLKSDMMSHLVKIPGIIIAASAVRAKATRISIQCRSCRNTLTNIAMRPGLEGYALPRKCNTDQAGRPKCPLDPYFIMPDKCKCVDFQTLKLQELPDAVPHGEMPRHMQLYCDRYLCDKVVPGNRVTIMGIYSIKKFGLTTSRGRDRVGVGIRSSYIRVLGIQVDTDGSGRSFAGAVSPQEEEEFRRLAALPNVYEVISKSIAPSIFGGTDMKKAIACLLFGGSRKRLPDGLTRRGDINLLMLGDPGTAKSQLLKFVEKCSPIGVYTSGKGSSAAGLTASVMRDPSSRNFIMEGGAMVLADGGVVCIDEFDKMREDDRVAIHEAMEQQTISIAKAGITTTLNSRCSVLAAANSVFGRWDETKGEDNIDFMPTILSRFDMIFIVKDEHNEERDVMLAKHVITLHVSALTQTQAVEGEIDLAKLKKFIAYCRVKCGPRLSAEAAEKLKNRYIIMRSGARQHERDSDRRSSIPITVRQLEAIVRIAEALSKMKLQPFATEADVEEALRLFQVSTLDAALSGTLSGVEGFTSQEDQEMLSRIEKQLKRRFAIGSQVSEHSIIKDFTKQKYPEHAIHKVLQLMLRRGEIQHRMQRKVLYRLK

T2 sequence (P33993 whole entry): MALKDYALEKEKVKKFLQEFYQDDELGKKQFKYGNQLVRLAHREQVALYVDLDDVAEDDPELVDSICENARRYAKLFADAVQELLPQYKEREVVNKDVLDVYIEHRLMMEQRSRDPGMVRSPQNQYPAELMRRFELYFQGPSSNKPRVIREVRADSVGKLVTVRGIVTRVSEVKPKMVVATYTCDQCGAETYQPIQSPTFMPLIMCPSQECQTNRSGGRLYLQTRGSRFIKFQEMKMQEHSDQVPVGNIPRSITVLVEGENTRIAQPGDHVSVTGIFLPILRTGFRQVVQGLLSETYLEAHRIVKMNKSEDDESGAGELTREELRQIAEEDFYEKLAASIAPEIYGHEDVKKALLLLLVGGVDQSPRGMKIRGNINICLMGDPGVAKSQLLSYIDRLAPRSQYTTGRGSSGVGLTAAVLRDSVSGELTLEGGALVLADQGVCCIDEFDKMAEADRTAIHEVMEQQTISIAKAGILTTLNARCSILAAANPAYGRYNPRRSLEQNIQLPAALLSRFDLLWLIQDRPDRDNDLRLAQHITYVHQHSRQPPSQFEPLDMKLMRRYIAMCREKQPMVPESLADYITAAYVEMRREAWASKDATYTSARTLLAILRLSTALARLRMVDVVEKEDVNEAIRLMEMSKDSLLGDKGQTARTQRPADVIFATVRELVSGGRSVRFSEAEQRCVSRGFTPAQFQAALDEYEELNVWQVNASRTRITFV

binding result (TIMELESS): binds
binding result (MCM7): binds
B1: TIPIN (natural protein, human)
chain: MLEPQENGVIDLPDYEHVEDETFPPFPPPASPERQDGEGTEPDEESGNGAPVRVPPKRTVKRNIPKLDAQRLISERGLPALRHVFDKAKFKGKGHEAEDLKMLIRHMEHWAHRLFPKLQFEDFIDRVEYLGSKKEVQTCLKRIRLDLPILHEDFVSNNDEVAENNEHDVTSTELDPFLTNLSESEMFASELSRSLTEEQQQRIERNKQLALERRQAKLLSNSQTLGNDMLMNTPRAHTVEEVNTDEDQKEESNGLNEDILDNPCNDAIANTLNEEETLLDQSFKNVQQQLDATSRNITEAR
notes: TIPIN, human; Stood in the structure as a subunit of m3; residues 62-147 modelled

binding result (POLE2): binds
B2: PSF1 (natural protein, human)
chain: MFCEKAMELIRELHRAPEGQLPAFNEDGLRQVLEEMKALYEQNQSDVNEAKSGGRSDLIPTIKFRHCSLLRNRRCTVAYLYDRLLRIRALRWEYGSVLPNALRFHMAAEEMEWFNNYKRSLATYMRSLGGDEGLDITQDMKPPKSLYIEVRCLKDYGEFEVDDGTSVLLKKNSQHFLPRWKCEQLIRQGVLEHILS
notes: PSF1 (GINS subunit), human; Stood in the structure as a subunit of m1; also called GINS subunit PSF1; source: Hi5 insect cells, purified as a subunit of hsCMG

Binder: B3
binding result (MCM5): binds
